Consider 1 substance from patent US20250051434A1.

In the assay the target is human IL-12 receptor (IL-12R) (human) (UniProt P42701). Put plainly: cell-based or functional assay.

As for mIL-12-Fc-wt (Fc fusion), the Mean Fold Reduction (potency vs IL-12 WT by EC50; HEK-Blue IL-12 STAT4/SEAP reporter) worked out at 1 fold.
